From the supplement of paper PMC10567573
± gives the standard deviation.

Assay: protein stability index of a GFP-peptide fusion (GPS, HEK-293T) (PSI 1-6); higher = more stable
Conditions: c terminus: a fixed tail appended
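Note: 24-mer peptide tiles fused after GFP, lentivirally expressed, FACS-sorted into six equal bins by GFP/DsRed ratio, decoded by Illumina sequencing, PSI is the read-weighted mean bin number.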

| Sequence | protein stability index (treatment: DMSO) | protein stability index (treatment: MLN4924 1 uM, 8 h) |
| --- | --- | --- |
| VSPIQIDGAGRTWQDSDTVKLLVD [TOR1AIP2] | 3.92 ± 0.11 | 3.75 ± 0.32 |
| HVLPAVLAEVAPVVTTEHILVSVA [PYCR3] | 2.65 ± 0.63 | 2.8 ± 0.72 |
| IHSIALSTFASLIGPFGGFFASGF [CDS2] | 3.12 ± 0.2 | 2.99 ± 0.16 |
| APYAAAAAAQSYPGYLPYSPEPPS [IRX6] | 4.06 ± 0.14 | 4.2 ± 0.15 |
| HAGEHLLLGATKRSMVFKDVLLLG [HNF4A] | 2.26 ± 0.33 | 2.35 ± 0.4 |
| KQQREKTRWLNSGRGDEASEEGQN [ADD1] | 5.54 ± 0.16 | 5.48 ± 0.26 |
| HRSSRETRDYAPPSRGHAYRDYGH [RBMY1A1] | 3.87 ± 0.18 | 3.92 ± 0.17 |
| VLEENGEKNQVQLGKLEATIKSLS [SASS6] | 3.98 ± 0.43 | 3.79 ± 0.16 |
| GELLATGDKGGRVVIFQREPESKN [PPP2R2C] | 4.61 ± 0.37 | 4.93 ± 0.21 |
| EEFAQAESKDQGKTLALARTMDIP [ALDH8A1] | 5.13 ± 0.19 | 5.38 ± 0.15 |
| SNLSTRDASILTEMPTQPGKPLIP [NETO1] | 4.52 ± 0.18 | 4.57 ± 0.26 |
| QYPGNYEQQQILIRQLQEQHYQQY [ACBD3] | 3.17 ± 0.26 | 3.24 ± 0.18 |
| GEQDTWAGEGAEALARNLLVDGET [NFE2L1] | 5.18 ± 0.57 | 5.15 ± 0.46 |
| FERLCLTWMFFFMMCVAERTYKQR [PHTF1] | 2.82 ± 0.54 | 3.3 ± 0.49 |
| DHARGKSQVALKIIRNVGKYREAA [CLK3] | 3.15 ± 0.18 | 3.33 ± 0.19 |
| LGMVTPVNDLRGSDSIAYDKGEKL [ADD1] | 4.62 ± 0.3 | 4.9 ± 0.089 |
| MGTSHGITRPSPRRSNSPDKFKRP [CCDC6] | 4.71 ± 0.087 | 4.89 ± 0.11 |
| LAESGGSPDVLQMLKIHRSDPQLI [TRADD] | 3.16 ± 0.43 | 3.36 ± 0.24 |
| ISVQELMGCLGVAKEDGKADTKKR [SMOC2] | 3.88 ± 0.33 | 3.92 ± 0.59 |
| LKECLKKQLEFCFSRENLSKDLYL [LARP4] |  | 2.67 ± 0.89 |
| QVSPVRRAPSRRHGVRAKVQPQAR [CPN1] | 4.88 ± 0.12 | 4.68 ± 0.13 |
| VMSALWVSGLDSSYLREQMLNEPL [GAN] | 2.83 ± 0.24 | 2.29 ± 0.54 |

| Sequence | protein stability index (treatment: DMSO) | protein stability index (treatment: MLN4924 1 uM, 8 h) |
| --- | --- | --- |
| MSVNVNRSVSDQFYRYKMPRLIAK [EIF5] | 2.52 ± 0.14 | 2.77 ± 0.29 |
| LLFKYQMKEPITKAEILESVIKNY [MAGEA10] | 2.53 ± 0.32 | 2.74 ± 0.29 |
| INRCSVLRQLGCKDGKNWNSNQAT [SPOPL] | 2.65 ± 0.28 | 2.78 ± 0.28 |
| QYQYERYGAVELSGAGRRKNATRE [IRX6] | 4.5 ± 0.39 | 4.54 ± 0.32 |
| NPNLSNRRGSTPLHMAVERRVRGV [RIPK4] | 3.84 ± 0.56 | 4.47 ± 0.65 |
| VSGCPEDLTVGRAPTADDDDDDHD [NOL4L] | 5.62 ± 0.31 | 5.63 ± 0.28 |
| DHKEPKEEINKNISDFGRQQLLPP [EHMT1] | 5.1 ± 0.2 | 5.16 ± 0.21 |
| AIPIEIKSIDDTSNFDDFPESDIL [STK38L] | 4.67 ± 0.17 | 4.84 ± 0.11 |
| IKECLSKGTFSDVTFKLDDGAISA [RHOBTB1] | 3.67 ± 0.18 | 3.95 ± 0.19 |
| LLPKGSKEEQRDYVFYLAVGNYRL [FIS1] | 2.63 ± 0.56 | 2.15 ± 0.063 |
| DIYYNNMEEVCGGEKPYLSPDILE [ATL3] | 3.72 ± 0.57 | 3.59 ± 0.27 |
| VPDREEGGSGGGGGGDEDGSLGSR [SMAD6] | 5.59 ± 0.24 | 5.33 ± 0.3 |
| QKYDPDKDEWHKVFDLPESLGGIR [KLHL13] | 3.55 ± 0.23 | 3.93 ± 0.29 |
| RAKEEERLNKLRLESEGSPETLTN [HACD3] | 5.38 ± 0.23 | 5.28 ± 0.26 |
| REDITEPAICALRHLTSRHQEAEM [CTNNB1] | 4.58 ± 0.41 | 4.4 ± 0.43 |
| SDAEAVSTRWEVIAEDGTKEIESQ [TAF7L] | 5.42 ± 0.12 | 5.48 ± 0.31 |
| NPWNWGKLAEAYLNLGPALSAALA [C8orf76] | 2.57 ± 0.26 | 2.44 ± 0.15 |
| DHSSQSEEEVVEGEKEVEALKKSA [BNIP3L] | 5.5 ± 0.36 | 5.67 ± 0.26 |
| IEIGCEDKTLAFKMNGYISNANYS [MLH1] | 2.34 ± 0.3 |  |
| TSENLKLVHIVCHKKTTHKLNCDP [DFFB] | 2.81 ± 0.19 | 2.97 ± 0.21 |
| QLPPVVPVSKPGALRRSLSRSMSQ [TCAP] | 3.97 ± 0.13 | 3.96 ± 0.13 |
| CEKTFRDKNTLKDHMRKKQHRKIN [ZNF277] | 3.77 ± 0.21 | 3.71 ± 0.31 |

| Sequence | protein stability index (treatment: DMSO) | protein stability index (treatment: MLN4924 1 uM, 8 h) |
| --- | --- | --- |
| KQECLITTFQDVYFVSESFEDAKE [TPH1] | 4.08 ± 0.73 | 4.45 ± 0.36 |
| QEAFLVQEVVELPVTERQIEREHL [TBC1D10A] | 4.94 ± 0.25 | 4.71 ± 0.23 |
| APDAHFTVDKQNISLWPREPPPKS [CD207] | 4.73 ± 0.24 | 4.78 ± 0.27 |
| NTLRCQLGDRLNVEVDAAPAVDLN [KRT33B] | 4.47 ± 0.19 | 4.39 ± 0.22 |
| RKTVCHNGVLGLSRLLFFLLGFLR [LPCAT4] | 2.92 ± 0.35 | 3.04 ± 0.38 |
| SSTCGQLASYPLALVRTRMQAQAS [SLC25A25] | 2.74 ± 0.23 | 3 ± 0.1 |
| LGYCLLLMLAGMGLHYIAFRKVKQ [DNAJC4] | 3.18 ± 0.28 | 3.11 ± 0.38 |
| MKYYIVHLKRHFMFRNHLCLVFEL [DYRK1B] | 2.9 ± 0.53 | 2.44 ± 0.63 |
| RMEEIVEGCTGALHILARDVHNRI [CTNNB1] | 2.74 ± 0.19 | 2.89 ± 0.28 |
| ERGVEGDFLIRDSESSPSDFSVSL [NCK2] | 4.37 ± 0.2 | 4.26 ± 0.25 |
| AAPGALGSLHAGGARLVAACSAWL [AUH] | 2.65 ± 0.047 | 2.39 ± 0.34 |
| GKTFKQSSNLGQHQRIHTGEKPFE [ZNF232] | 4.46 ± 0.41 | 4.48 ± 0.17 |
| DVHHGNGTQHMFEDDPSVLYVSLH [HDAC6] | 2.97 ± 0.34 | 2.93 ± 0.31 |
| QQLHARYVLNLLYETKKHLVQLPN [PPEF2] | 2.66 ± 0.35 | 2.32 ± 0.22 |
| KAMFSGRVEVLTDAGGWVLIDRSG [KCTD13] | 2.19 ± 0.21 | 2.48 ± 0.47 |
| FRQLCYQETPGPREALTRLQELCY [ZSCAN9] | 2.48 ± 0.14 | 2.62 ± 0.25 |
| LWDTSGQGRFCTIFRSYSRGAQGV [RAB40A] | 2.24 ± 0.41 | 2.51 ± 0.36 |
| IHDSEFKEYTTRTQAPPSVILGVT [DENND6A] | 3.22 ± 0.17 | 3.29 ± 0.31 |
| PPTVSQTPVIAATPVPTITANVTS [BRD3] | 4.83 ± 0.12 | 4.76 ± 0.18 |
| YQYLHYALFKANRLEKAVAAAYTF [P3H4] | 2.22 ± 0.17 | 2.55 ± 0.25 |
| SLFSQALKDEEAKVLQLTVRCEAL [CCDC89] | 2.8 ± 0.26 | 2.76 ± 0.17 |
